From patent US20250375530A1 (ALMAC DISCOVERY, published 2025)

How the values were obtained:
mouse ROR1-Fc (CHO) = molecular target: T1, mouse ROR1-Fc (CHO) (mouse); test: ELISA, mROR1-hFc coated
T1 construct: also called mROR1-hFc; mROR1

human ROR1-Fc (CHO) [1] = molecular target: T2, human ROR1-Fc (CHO) (human); test: ELISA, plate coated with human ROR1-hFc, HisMyc-tagged VNAR at a single 5 ug/mL, Abs 450 nm; no blank bar shown
T2 construct: also called hROR1-Fc; huROR1-Fc

human ROR1-Fc (CHO) [2] = molecular target: T2, human ROR1-Fc (CHO); test: ELISA dose response, plate coated with hROR1-Fc, HisMyc-tagged VNAR 0-5 ug/mL (linear axis), Abs 450 nm
human ROR1-Fc (CHO) [3] = molecular target: T2, human ROR1-Fc (CHO); test: BLI, hROR1; MMAE conjugate

T2 sequence (chain, as listed by the source limits assumed): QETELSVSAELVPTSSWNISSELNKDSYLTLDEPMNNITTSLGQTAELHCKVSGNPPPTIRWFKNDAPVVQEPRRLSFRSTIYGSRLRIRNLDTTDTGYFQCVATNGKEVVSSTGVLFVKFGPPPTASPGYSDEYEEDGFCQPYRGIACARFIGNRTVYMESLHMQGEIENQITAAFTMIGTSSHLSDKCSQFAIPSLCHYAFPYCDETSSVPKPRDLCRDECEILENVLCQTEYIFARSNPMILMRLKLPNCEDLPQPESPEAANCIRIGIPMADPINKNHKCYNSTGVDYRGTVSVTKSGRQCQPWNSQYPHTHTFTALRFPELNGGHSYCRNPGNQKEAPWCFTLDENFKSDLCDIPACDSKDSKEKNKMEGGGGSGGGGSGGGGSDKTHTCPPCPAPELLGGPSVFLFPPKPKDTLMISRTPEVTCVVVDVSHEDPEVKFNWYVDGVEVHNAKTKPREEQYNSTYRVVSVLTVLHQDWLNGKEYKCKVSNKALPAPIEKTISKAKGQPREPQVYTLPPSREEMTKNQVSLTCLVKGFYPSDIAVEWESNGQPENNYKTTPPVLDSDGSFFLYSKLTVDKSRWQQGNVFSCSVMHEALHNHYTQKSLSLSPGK
T1 sequence (chain, as listed by the source limits assumed): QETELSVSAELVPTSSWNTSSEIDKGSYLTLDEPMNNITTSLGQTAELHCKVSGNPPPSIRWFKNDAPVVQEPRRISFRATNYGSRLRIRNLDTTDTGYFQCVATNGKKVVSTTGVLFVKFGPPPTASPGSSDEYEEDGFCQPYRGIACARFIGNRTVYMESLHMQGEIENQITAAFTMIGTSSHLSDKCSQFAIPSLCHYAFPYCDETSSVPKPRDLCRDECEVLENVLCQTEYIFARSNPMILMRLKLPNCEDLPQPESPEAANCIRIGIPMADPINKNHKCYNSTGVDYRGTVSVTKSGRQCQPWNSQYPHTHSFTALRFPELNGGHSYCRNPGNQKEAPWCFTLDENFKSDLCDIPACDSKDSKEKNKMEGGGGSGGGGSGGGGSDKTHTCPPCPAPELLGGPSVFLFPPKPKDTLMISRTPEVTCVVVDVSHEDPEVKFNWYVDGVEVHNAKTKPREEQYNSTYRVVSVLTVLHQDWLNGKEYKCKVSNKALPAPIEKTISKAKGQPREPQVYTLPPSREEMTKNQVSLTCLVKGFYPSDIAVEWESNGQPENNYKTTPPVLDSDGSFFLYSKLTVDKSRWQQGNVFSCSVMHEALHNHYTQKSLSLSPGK

Row | Binder | binding result (mouse ROR1-Fc (CHO)) | binding result (human ROR1-Fc (CHO) [1]) | binding result (human ROR1-Fc (CHO) [2]) | Kd (human ROR1-Fc (CHO) [3]) [nM]
1 | P3A1 G1 AE3.S (VNAR, VNAR; entry includes the HisMyc tag) VNAR: TRVDQSPSSLSASVGDRVTITCVLTGTRYGLYSSTYWYRKNPGSSDEERISISGRYSESVNKGTKSFTLTISSLQPEDSATYYCRAREARHPWLRQWYDGAGTKVEIKQ | binds | binds | – | –
2 | P3A1 G1 AF7.S (VNAR, VNAR; entry includes the HisMyc tag) VNAR: TRVDQSPSSLSASVGDRVTITCVLTGTKYGLYASTYWYRKNPGSTDKERIIIGGRYSESVNNRSKSFTLTISSLQPEDSATYYCRAREARHPWLRQWYDGAGTKVEIKQ | – | – | binds | –
3 | P3A1 G1 NAC6.S (VNAR, VNAR; entry includes the HisMyc tag) VNAR: TRVDQSPSSLSASVGDRVTITCVLTDTRYALYSSTYWYRKNPGSTDEERISIGGRYSESVNKGSKSFTLTISSLQPEDSATYYCRAREARHPWLRQWYDGAGTKVEIKQ | binds | binds | – | –
4 | P3A1 G1 NAG8.S (VNAR, VNAR; entry includes the HisMyc tag) VNAR: TRVDQSPSSLSASVGDRVTITCVLTGTKYGLYASTYWYRKNPGSPNKDRMIIGGRYSESVNNGTKSFTLTISSLQPEDSATYYCRAREARHPWLRQWYDGAGTKVEIKQ | – | – | binds | –
5 | G3CP G4-P3A1G1AE3 MA-vc-PAB-MMAE conjugate (Cys linker) (VNAR, not shown: small tags and cut ends, MA-vc-PAB-MMAE on the single cysteine of the linker PGVQPCPGGGGGS, DAR 1.0) TRVDQSPSSLSASVGDRVTITCVLTDANYGLAATYWYRKNPGSSNKERISISGRYSESVNKGTMSFTLTISSLQPEDSATYYCRAYPWGAGAPYNVQWYDGAGTKVEIKPGVQPCPGGGGGSTRVDQSPSSLSASVGDRVTITCVLTGTRYGLYSTYWYRKNPGSSDEERISISGRYSESVNKGTKSFTLTISSLQPEDSATYYCRAREARHPWLRQWYDGAGTKVEIK | – | – | – | 0.76
